# Experimental data from patent US20140112926A1.
# What was measured:
# [1] = target: GST-tagged version of human FcγRIIIA (human) (UniProt P08637); test: AlphaLISA vs biotin-huIgG, supernatant, round 2
# [2] = target: GST-tagged version of human FcγRIIIA (human) (UniProt P08637); test: AlphaLISA vs biotin-huIgG, supernatant, round 1
# [3] = target: GST-tagged version of human FcγRIIIA (human) (UniProt P08637); test: AlphaLISA vs biotin-huIgG, supernatant, round 3
# Sequence of GST-tagged version of human FcγRIIIA (human) (P08637 17-208 limits assumed): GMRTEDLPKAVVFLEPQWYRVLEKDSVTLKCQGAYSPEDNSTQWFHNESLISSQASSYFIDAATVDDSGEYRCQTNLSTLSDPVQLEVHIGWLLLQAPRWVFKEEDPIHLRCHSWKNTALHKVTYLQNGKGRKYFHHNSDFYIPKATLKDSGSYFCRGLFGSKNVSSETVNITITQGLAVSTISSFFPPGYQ
Substance,Alpha signal [1],% inhibition [2] [%],Alpha signal [2],Alpha signal [3],% inhibition [1] [%],% inhibition [3] [%]
"scFv-Fc/Fc, K290S in scFv-Fc (from UniProt P0DOX5 218-449; P0DOX5 218-449) (Fc fusion)",55900,24.8,57100,54600,,
"scFv-Fc/Fc, V302Q in dummy Fc (Fc fusion)",35900,47,40300,33400,55.3,57.4
"scFv-Fc/Fc, F243V in dummy Fc (Fc fusion)",32100,49,38800,29300,60.1,62.8
"scFv-Fc/Fc, I332E in dummy Fc (Fc fusion)",9880,85.8,10800,11500,87.7,85.3
"scFv-Fc/Fc, I253V in dummy Fc (Fc fusion)",61500,23,58500,58400,23.5,25.7
"scFv-Fc/Fc, K288T in dummy Fc (Fc fusion)",53100,26.7,55700,50300,,
"scFv-Fc/Fc, S239N in scFv-Fc (Fc fusion)",26100,58,31900,24500,67.5,68.8
"scFv-Fc/Fc, E258S in dummy Fc (Fc fusion)",57900,20.6,60300,61600,28,21.6
"scFv-Fc/Fc, L309S in scFv-Fc (Fc fusion)",61500,20.4,60500,63500,23.5,19.1
"scFv-Fc/Fc, S239D in scFv-Fc (Fc fusion)",16900,,24300,21400,79,
"scFv-Fc/Fc, S298A in scFv-Fc (Fc fusion)",25300,76.5,17900,27500,68.5,65
"scFv-Fc/Fc, A287F in scFv-Fc (from UniProt P0DOX5 218-449; P0DOX5 218-449) (Fc fusion)",33500,47.5,39900,25500,58.4,67.6
"scFv-Fc/Fc, K290G in scFv-Fc (from UniProt P0DOX5 218-449; P0DOX5 218-449) (Fc fusion)",53800,31.1,52400,55700,33.1,
"scFv-Fc/Fc, R255S in dummy Fc (Fc fusion)",49800,21.9,59300,61000,38,22.3
"scFv-Fc/Fc, T307S in scFv-Fc (Fc fusion)",,41.3,,51400,42.1,34.6
"scFv-Fc/Fc, T307G in scFv-Fc (Fc fusion)",,,32500,,,51

Substance,Alpha signal [1],% inhibition [2] [%],Alpha signal [2],Alpha signal [3],% inhibition [1] [%],% inhibition [3] [%]
"scFv-Fc/Fc, K290Q in scFv-Fc (Fc fusion)",36700,50.8,37400,40300,54.4,48.8
"scFv-Fc/Fc, A339T in dummy Fc (Fc fusion)",58400,25.8,56400,49800,27.3,36.6
"scFv-Fc/Fc, T307P in dummy Fc (Fc fusion)",20000,75,19000,14100,75.1,82.1
"scFv-Fc/Fc, K246W in dummy Fc (Fc fusion)",57100,20,60800,51700,29,34.2
"scFv-Fc/Fc, N315S in scFv-Fc (Fc fusion)",19500,65.8,26000,28800,75.8,63.4
"scFv-Fc/Fc, F243L in dummy Fc (Fc fusion)",18200,72.9,20600,18800,77.4,76.1
"scFv-Fc/Fc, S298C in scFv-Fc (Fc fusion)",10400,84,12200,13400,87.1,82.9
"scFv-Fc/Fc, L309C in dummy Fc (Fc fusion)",55600,21.4,59700,61800,30.8,21.4
"scFv-Fc/Fc, K290Y in scFv-Fc (Fc fusion)",7890,87.9,9170,10200,90.2,87
"scFv-Fc/Fc, K290F in dummy Fc (Fc fusion)",55400,23.1,58500,60100,31.1,23.5
"scFv-Fc/Fc, L309E in scFv-Fc (Fc fusion)",21100,67,,,73.7,67.6
"scFv-Fc/Fc, K246E in dummy Fc (Fc fusion)",62600,22.4,58900,53300,22.2,32.1
"scFv-Fc/Fc, K248L in dummy Fc (Fc fusion)",23100,67.5,24700,24800,71.3,68.4
"scFv-Fc/Fc, F243I in dummy Fc (Fc fusion)",25800,60.8,29800,23800,,
"scFv-Fc/Fc, K334A in scFv-Fc (Fc fusion)",54800,32,51700,56500,31.9,28.2

# Further lines, results first:
Alpha signal [1],% inhibition [2] [%],Alpha signal [2],Alpha signal [3],% inhibition [1] [%],% inhibition [3] [%],Substance
19800,,22300,24400,75.4,,"scFv-Fc/Fc, K334M in scFv-Fc (Fc fusion)"
61700,15,64600,62200,23.2,20.9,"scFv-Fc/Fc, G236Y in scFv-Fc (Fc fusion)"
26900,64.4,27100,30200,66.5,61.6,"scFv-Fc/Fc, K334V in dummy Fc (Fc fusion)"
56600,,54800,57100,,,"scFv-Fc/Fc, H268E in scFv-Fc (from UniProt P0DOX5 218-449; P0DOX5 218-449) (Fc fusion)"
19100,65.1,26500,20800,76.3,73.5,"scFv-Fc/Fc, T256Q in scFv-Fc (from UniProt P0DOX5 218-449; P0DOX5 218-449) (Fc fusion)"
60600,23.1,58500,64300,24.7,18.2,"scFv-Fc/Fc, Y296L in scFv-Fc (Fc fusion)"
21700,60.6,30000,21400,73.1,72.8,"scFv-Fc/Fc, F243I in scFv-Fc (Fc fusion)"
19500,69.3,23300,22400,75.8,71.5,"scFv-Fc/Fc, E258V in scFv-Fc (from UniProt P0DOX5 218-449; P0DOX5 218-449) (Fc fusion)"
58100,20.4,60500,60300,27.8,23.3,"scFv-Fc/Fc, M252D in dummy Fc (Fc fusion)"
20100,73,20600,,75,51,"scFv-Fc/Fc, K290G in dummy Fc (Fc fusion)"
20400,75.1,18900,18400,74.6,76.5,"scFv-Fc/Fc, I332E in scFv-Fc (Fc fusion)"
18900,71.5,21700,25800,76.4,67.2,"scFv-Fc/Fc, T307E in scFv-Fc (Fc fusion)"
42100,45.1,41700,40400,47.7,48.6,"scFv-Fc/Fc, F243V in scFv-Fc (Fc fusion)"
